The target in experiment [1] is T1, human HLA-A*0201 (human).
T1 construct: In the T2 assay the MHC stands on the cell surface; also called HLA-A2
The experiment is described as follows: T2 cell assay, 50 µg/ml peptide plus 5 µg/ml b2m for 18 h, flow cytometry with mAb BB7.2; (MFI with peptide - MFI without)/MFI without.

In experiment [2] the target is T1, human HLA-A*0201. The experiment is described as follows: T2 cell assay: peptide plus beta2-microglobulin pulsed 18 h, HLA-A*0201 surface expression by flow cytometry with mAb BB7.2.

B1: hTERT peptide E555 (ELLRSFFYV) (peptide)
peptide: ELLRSFFYV
notes: Only the start position aa555 is printed; the end of the range follows from the length of the nonapeptide
For the molecule B1, in the experiment with human HLA-A*0201 [1], the “Fluorescence Index” value was 2.2.

B2: hTERT peptide R865 (RLVDDFLLV) (peptide)
peptide: RLVDDFLLV
notes: Only the start position aa865 is printed; the end of the range follows from the length of the nonapeptide
As to B2, the “Fluorescence Index” value with human HLA-A*0201 [1] was 2.2.

B3: hTERT peptide I540 (ILAKFLHWL) (peptide)
peptide: ILAKFLHWL
notes: Only the start position aa540 is printed; the end of the range follows from the length of the nonapeptide; also called hTERT I540
Turning to B3, the “Fluorescence Index” value with human HLA-A*0201 [1] worked out at 3.1.

B4: A98-Id idiotype peptide (AHTKDGFNF), negative control (peptide)
peptide: AHTKDGFNF
notes: Only the start position aa98 is printed
Consider B4, for which the binding result with human HLA-A*0201 [2] is “no binding (tested: 50 µg/ml)”. In addition, in the experiment with human HLA-A*0201 [1], the “Fluorescence Index” value was 0.

B5: I540-S, scrambled hTERT I540 peptide (HFLLWKLIA), negative control (peptide)
peptide: HFLLWKLIA
Consider B5, for which, in the experiment with human HLA-A*0201 [2], the binding result is recorded as “no binding (tested: 50 µg/ml)”. The “Fluorescence Index” value with human HLA-A*0201 [1] came out at 0.2.
